# According to US20250152746A1, “BASE EDITING OF ANGPTL3 AND METHODS OF USING SAME FOR TREATMENT OF DISEASE” (Verve Therapeutics, Inc., priority 2020, published 2025):
# m = 2'-O-methyl; r = 2'-OH (RNA)
# Legend:
# [1] = system: PCSK9 gene; experiment: PCSK9 gRNA/SpCas9 editing in primary human hepatocytes (Tables 2, 4); type: cell-based; details: SpCas9 mRNA MS002 1:1 by weight; for Human Primary Hepatocyte Editing % 100: 100 ng/RNA/mL; for Human Primary Hepatocyte Editing % 500: 500 ng/RNA/mL; for Human Primary Hepatocyte Editing % 2500: 2500 ng/RNA/mL
# In short: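 Primary human hepatocytes co-transfected with PCSK9 gRNA plus SpCas9 mRNA (1:1 by weight) at 2500, 500 or 100 ng RNA/mL, or 2500–250 ng/mL for tracr-modified guides. Editing at the target site read by amplicon next-generation sequencing of extracted genomic DNA.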
# [2] = system: PCSK9 gene; experiment: PCSK9 gRNA/SpCas9 editing in primary cynomolgus hepatocytes (Tables 2, 22); type: cell-based, cynomolgus monkey; details: SpCas9 mRNA MS002 1:1 by weight; for Cyno Primary Hepatocyte Editing % 100: 100 ng/RNA/mL; for Cyno Primary Hepatocyte Editing % 500: 500 ng/RNA/mL; for Cyno Primary Hepatocyte Editing % 2500: 2500 ng/RNA/mL
Molecule,Human Primary Hepatocyte Editing % 100 [1] [%],Human Primary Hepatocyte Editing % 500 [1] [%],Human Primary Hepatocyte Editing % 2500 [1] [%],Cyno Primary Hepatocyte Editing % 100 [2] [%],Cyno Primary Hepatocyte Editing % 500 [2] [%],Cyno Primary Hepatocyte Editing % 2500 [2] [%]
"GA170: PCSK9 gRNA; protospacer CCAGGACCGCCTGGAGCTGA (SEQ ID NO: 164) (nucleic acid, sugars from the 5' end m3 r94 m3, linkages s3 o93 s3 (s phosphorothioate, o phosphodiester), T or U not given here) guide: CCAGGACCGCCUGGAGCUGAGUUUUAGAGCUAGAAAUAGCAAGUUAAAAUAAGGCUAGUCCGUUAUCAACUUGAAAAAGUGGCACCGAGUCGGUGCUUUU",2.9,15.84,31.35,4.03,11.48,23.17
"GA169: PCSK9 gRNA; protospacer CGTGCGCAGGAGGACGAGGA (SEQ ID NO: 163) (nucleic acid, sugars from the 5' end m3 r94 m3, linkages s3 o93 s3 (s phosphorothioate, o phosphodiester), T or U not given here) guide: CGUGCGCAGGAGGACGAGGAGUUUUAGAGCUAGAAAUAGCAAGUUAAAAUAAGGCUAGUCCGUUAUCAACUUGAAAAAGUGGCACCGAGUCGGUGCUUUU",5.49,15.15,46.65,3.45,18.28,42.38
"GA165: PCSK9 gRNA; protospacer CCGTCAGCTCCAGGCGGTCC (SEQ ID NO: 159) (nucleic acid, sugars from the 5' end m3 r94 m3, linkages s3 o93 s3 (s phosphorothioate, o phosphodiester), T or U not given here) guide: CCGUCAGCUCCAGGCGGUCCGUUUUAGAGCUAGAAAUAGCAAGUUAAAAUAAGGCUAGUCCGUUAUCAACUUGAAAAAGUGGCACCGAGUCGGUGCUUUU",4.99,22.3,40.27,5.43,18.00,35.57
"GA164: PCSK9 gRNA; protospacer GTCCTCGTCCTCCTGCGCAC (SEQ ID NO: 158) (nucleic acid, sugars from the 5' end m3 r94 m3, linkages s3 o93 s3 (s phosphorothioate, o phosphodiester), T or U not given here) guide: GUCCUCGUCCUCCUGCGCACGUUUUAGAGCUAGAAAUAGCAAGUUAAAAUAAGGCUAGUCCGUUAUCAACUUGAAAAAGUGGCACCGAGUCGGUGCUUUU",2.68,11.12,25.77,2.75,13.96,34.89
"GA171: PCSK9 gRNA; protospacer TCTTGGTGAGGTATCCCCGG (SEQ ID NO: 165) (nucleic acid, 2'-O-methyl at 1, 2, other sugars, backbone and T or U not given here; further chemistry not fully specified) guide: UCTTGGTGAGGTATCCCCGGGTTTTAGAGCTAGAAATAGCAAGTTAAAATAAGGCTAGTCCGTTATCAACTTGAAAAAGTGGCACCGAGTCGGTGCTTTT",2.37,9.38,31.75,1.29,9.06,27.79
"GA163: PCSK9 gRNA; protospacer CGTCCTCGTCCTCCTGCGCA (SEQ ID NO: 157) (nucleic acid, sugars from the 5' end m3 r94 m3, linkages s3 o93 s3 (s phosphorothioate, o phosphodiester), T or U not given here) guide: CGUCCUCGUCCUCCUGCGCAGUUUUAGAGCUAGAAAUAGCAAGUUAAAAUAAGGCUAGUCCGUUAUCAACUUGAAAAAGUGGCACCGAGUCGGUGCUUUU",2.31,9.2,29.32,5.99,17.69,49.50
"GA173: PCSK9 gRNA; protospacer CTTGGTGAGGTATCCCCGGC (SEQ ID NO: 167) (nucleic acid, sugars from the 5' end m3 r94 m3, linkages s3 o93 s3 (s phosphorothioate, o phosphodiester), T or U not given here) guide: CUUGGUGAGGUAUCCCCGGCGUUUUAGAGCUAGAAAUAGCAAGUUAAAAUAAGGCUAGUCCGUUAUCAACUUGAAAAAGUGGCACCGAGUCGGUGCUUUU",0.69,3.94,23.38,2.06,8.70,35.03
"GA172: PCSK9 gRNA; protospacer CAGTGCGCTCTGACTGCGAG (SEQ ID NO: 166) (nucleic acid, sugars from the 5' end m3 r94 m3, linkages s3 o93 s3 (s phosphorothioate, o phosphodiester), T or U not given here) guide: CAGUGCGCUCUGACUGCGAGGUUUUAGAGCUAGAAAUAGCAAGUUAAAAUAAGGCUAGUCCGUUAUCAACUUGAAAAAGUGGCACCGAGUCGGUGCUUUU",0.32,3.52,14.01,0.51,2.11,15.58
"GA168: PCSK9 gRNA; protospacer CTTGGCGCAGCGGTGGAAGG (SEQ ID NO: 162) (nucleic acid, sugars from the 5' end m3 r94 m3, linkages s3 o93 s3 (s phosphorothioate, o phosphodiester), T or U not given here) guide: CUUGGCGCAGCGGUGGAAGGGUUUUAGAGCUAGAAAUAGCAAGUUAAAAUAAGGCUAGUCCGUUAUCAACUUGAAAAAGUGGCACCGAGUCGGUGCUUUU",–,25.77,54.99,4.75,15.90,41.49
"GA166: PCSK9 gRNA; protospacer CGCCCGTGCGCAGGAGGACG (SEQ ID NO: 160) (nucleic acid, sugars from the 5' end m3 r94 m3, linkages s3 o93 s3 (s phosphorothioate, o phosphodiester), T or U not given here) guide: CGCCCGUGCGCAGGAGGACGGUUUUAGAGCUAGAAAUAGCAAGUUAAAAUAAGGCUAGUCCGUUAUCAACUUGAAAAAGUGGCACCGAGUCGGUGCUUUU",2.89,10.99,36.89,3.93,14.39,44.77
"GA167: PCSK9 gRNA; protospacer TCAGCTCCAGGCGGTCCTGG (SEQ ID NO: 161) (nucleic acid, sugars from the 5' end m3 r94 m3, linkages s3 o93 s3 (s phosphorothioate, o phosphodiester), T or U not given here) guide: UCAGCUCCAGGCGGUCCUGGGUUUUAGAGCUAGAAAUAGCAAGUUAAAAUAAGGCUAGUCCGUUAUCAACUUGAAAAAGUGGCACCGAGUCGGUGCUUUU",8.2,25.87,53.71,11.98,35.98,66.07
